Results: US20170240645A1 (Genentech, published 2017)

Experiments:
[1] = target: T1, PMEL17 N-terminal deletion mutant Δ100 (human, UniProt P40967 101-661); assay: immunoblot of cell lysates
T1 construct: the real construct lacks the N-terminal part; Tested in cell lysates by immunoblot
T1 sequence: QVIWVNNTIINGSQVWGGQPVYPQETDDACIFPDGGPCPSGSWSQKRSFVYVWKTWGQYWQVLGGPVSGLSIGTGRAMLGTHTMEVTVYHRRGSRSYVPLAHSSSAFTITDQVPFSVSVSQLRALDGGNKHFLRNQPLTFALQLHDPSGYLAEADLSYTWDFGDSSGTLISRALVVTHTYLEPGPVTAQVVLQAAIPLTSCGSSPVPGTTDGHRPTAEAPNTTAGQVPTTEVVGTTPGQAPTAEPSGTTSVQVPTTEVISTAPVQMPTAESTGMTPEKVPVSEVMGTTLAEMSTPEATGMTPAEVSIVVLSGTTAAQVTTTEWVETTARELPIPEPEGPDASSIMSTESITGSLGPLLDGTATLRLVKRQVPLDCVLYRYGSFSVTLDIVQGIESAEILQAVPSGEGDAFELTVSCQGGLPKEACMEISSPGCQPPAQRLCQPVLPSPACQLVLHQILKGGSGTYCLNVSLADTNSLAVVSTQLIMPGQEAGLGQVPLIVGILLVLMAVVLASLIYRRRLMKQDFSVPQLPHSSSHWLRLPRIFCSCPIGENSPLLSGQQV

[2] = target: T2, full-length human PMEL17 with an N-terminal gD tag (human, UniProt P40967 25-661); assay: immunoblot of cell lysates
T2 construct: it is left out here; also called full-length PMEL17; N-terminal gD tagged PMEL17 (human)
T2 sequence: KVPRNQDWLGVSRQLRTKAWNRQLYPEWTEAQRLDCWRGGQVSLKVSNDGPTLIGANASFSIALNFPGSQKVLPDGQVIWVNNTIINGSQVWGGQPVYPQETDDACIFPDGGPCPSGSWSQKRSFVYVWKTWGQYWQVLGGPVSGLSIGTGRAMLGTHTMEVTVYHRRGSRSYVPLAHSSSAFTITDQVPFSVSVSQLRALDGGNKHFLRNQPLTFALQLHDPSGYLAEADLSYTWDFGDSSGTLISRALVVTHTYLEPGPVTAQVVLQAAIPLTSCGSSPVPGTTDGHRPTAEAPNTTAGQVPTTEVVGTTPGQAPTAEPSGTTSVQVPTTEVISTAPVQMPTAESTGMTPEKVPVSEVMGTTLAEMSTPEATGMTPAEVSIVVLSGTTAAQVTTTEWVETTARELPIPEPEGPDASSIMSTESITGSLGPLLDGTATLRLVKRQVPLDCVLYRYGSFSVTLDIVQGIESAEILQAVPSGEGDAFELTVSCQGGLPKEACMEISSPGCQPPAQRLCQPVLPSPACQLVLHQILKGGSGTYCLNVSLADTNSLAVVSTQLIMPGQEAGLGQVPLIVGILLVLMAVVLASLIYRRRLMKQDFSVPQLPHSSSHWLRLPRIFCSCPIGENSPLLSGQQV

[3] = target: T3, cynomolgus monkey PMEL17 with an N-terminal gD tag (cynomolgus monkey, UniProt P40967 25-661 (human entry)); assay: FACS, 293S cells stably transfected with gD tagged PMEL17, 10 µg/ml 17A9
T3 construct: On stably transfected 293S cells; also called N-terminal gD tagged PMEL17 (cynomolgus monkey)
T3 chain: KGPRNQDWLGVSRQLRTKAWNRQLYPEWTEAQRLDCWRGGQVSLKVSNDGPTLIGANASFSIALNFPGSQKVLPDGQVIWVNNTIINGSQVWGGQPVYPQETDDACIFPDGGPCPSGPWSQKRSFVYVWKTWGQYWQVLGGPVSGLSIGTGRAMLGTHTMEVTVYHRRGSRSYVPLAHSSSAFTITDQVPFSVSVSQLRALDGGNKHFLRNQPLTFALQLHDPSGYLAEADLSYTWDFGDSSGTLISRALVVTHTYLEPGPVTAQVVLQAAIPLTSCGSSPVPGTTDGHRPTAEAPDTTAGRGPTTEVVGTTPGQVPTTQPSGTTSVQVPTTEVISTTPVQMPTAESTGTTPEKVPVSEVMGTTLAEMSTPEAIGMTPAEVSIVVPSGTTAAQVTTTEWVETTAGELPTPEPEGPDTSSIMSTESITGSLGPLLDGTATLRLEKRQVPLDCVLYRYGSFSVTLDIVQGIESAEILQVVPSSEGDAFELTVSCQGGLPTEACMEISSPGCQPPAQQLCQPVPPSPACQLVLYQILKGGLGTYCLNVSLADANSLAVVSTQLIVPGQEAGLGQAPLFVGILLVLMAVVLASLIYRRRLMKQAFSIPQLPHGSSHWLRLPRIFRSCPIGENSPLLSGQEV
Experimental: (§1) Antibody 17A9 was tested to determine if it cross-reacts with PMEL17 from species other than human. […] All of the sequences include the signal sequence except for the cynomolgus monkey PMEL17. Residues that are identical among all four species are indicated by asterisks (*). In the region where the rat sequence has a deletion, residues that are identical among the remaining three species are indicated by a plus (+). Binding to each species of PMEL17 was determined by FACS analysis using 293S cells stably transfected with an N-terminal gD tagged PMEL17 (human, cynomolgus monkey, rat, or mouse PMEL17); stained with 10 μg/ml 17A9 antibody; and detected with R-Phycoerythrin conjugated goat anti-mouse antibody.

[4] = target: T4, mouse PMEL17 with an N-terminal gD tag (mouse, UniProt Q60696 26-626); assay: as above
T4 construct: On stably transfected 293S cells; also called N-terminal gD tagged PMEL17 (mouse)
T4 sequence: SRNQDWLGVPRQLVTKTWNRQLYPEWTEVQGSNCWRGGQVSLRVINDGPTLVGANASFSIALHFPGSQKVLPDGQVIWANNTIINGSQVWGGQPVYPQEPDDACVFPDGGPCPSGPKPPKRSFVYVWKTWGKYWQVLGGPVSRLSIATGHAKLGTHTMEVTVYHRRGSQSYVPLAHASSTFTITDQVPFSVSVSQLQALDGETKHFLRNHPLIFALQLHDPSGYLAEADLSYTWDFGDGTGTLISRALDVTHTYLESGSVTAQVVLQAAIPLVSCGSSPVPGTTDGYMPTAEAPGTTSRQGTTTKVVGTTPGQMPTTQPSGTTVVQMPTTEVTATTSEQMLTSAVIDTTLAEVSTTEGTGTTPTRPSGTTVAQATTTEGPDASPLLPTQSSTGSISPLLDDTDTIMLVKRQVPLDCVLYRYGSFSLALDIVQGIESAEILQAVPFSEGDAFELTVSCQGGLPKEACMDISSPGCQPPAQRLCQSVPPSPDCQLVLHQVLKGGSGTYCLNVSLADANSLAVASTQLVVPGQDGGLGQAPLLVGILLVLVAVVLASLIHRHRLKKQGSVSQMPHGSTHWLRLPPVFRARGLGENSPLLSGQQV
Experimental: as §1

B1: 17A9 (antibody, V domains shown)
VH: EVQLQQSGPELVKPGASMKISCKSSGYSFTRYTMNWVKQSHGKNLEWIGVINPYNGGTVYNQKFKGKATLTVDKSSSTAYMELLSLTSEDSAVYYCARTDYDGYAMDYWGQGTSVTVSS
VL: DVQITQSPSYLAASPGETITINCRATKSISKYLAWYQEQPGKTNNLLIYSGSTLQSGIPSRFSGSGSGTDFTLTISSLEPEDFAMYYCQQHNEYPYTFGSGTKLEIK
notes: Mouse monoclonal antibody from a hybridoma (mice immunized with PMEL17 ECD-Fc); also called anti-PMEL17 antibody 17A9
[1]
  binding result: no binding
[2]
  binding result: binds
[3]
  binding result: binds
[4]
  binding result: binds
